From US20180271960A1, “METHOD TO TREAT CANCER USING ARGININE DELPETOR AND ORNITHINE DECARBOXYLASE (ODC) INHIBITOR” (Bio-Cancer Treatment International Ltd., priority 2015, published 2018) come the findings set out here.

Entries after “also recorded” stand apart in the source; their conditions may differ.

For data set [1], the system named is SU-DHL-6 B cell lymphoma xenograft. Nature of the data set: SU-DHL-6 B cell lymphoma xenograft model. In kind it is in vivo, mouse. The note with it: SU-DHL-6 xenograft; PEG-BCT-100 20 mg/kg IV twice a week; DFMO 2% w/v in drinking water. On the procedure:
In one example embodiment, the SU-DHL-6 human lymphoma cells are maintained in vitro as a suspension culture in RPMI1640 medium supplemented with 10% heat inactivated fetal bovine serum at 37° C. in an atmosphere of 5% CO2 in air. The tumour cells are routinely sub-cultured twice weekly. The cells growing in an exponential growth phase are harvested and counted for tumour inoculation.
One day before tumour inoculation, all mice are sub-lethally irradiated with 60Co (200 rad). Each mouse is inoculated subcutaneously at the right flank region with SU-DHL-6 tumour cells (5×10^6) in 0.1 ml of PBS/Matrigel (1:1) for tumour development. The treatments start when the mean tumour size reaches 125 mm^3. The date of tumour cell inoculation is denoted as day 0.
Four groups of animals, with eight animals in each group, are tested. Control group (negative control) receives physiological saline, and the three treatment groups respectively receive 20 mg/kg of PEG-BCT-100 alone, 2% w/v DFMO in drinking water, and a combination of 20 mg/kg of PEG-BCT-100 and 2% w/v DFMO. PEG-BCT-100 is administered intravenously, twice a week, until euthanization while DFMO is supplied in drinking water at 2% w/v.

The subject of data set [2] is CAPAN-1 pancreatic cancer xenograft. Nature of the data set: CAPAN-1 pancreatic cancer xenograft model. As to conditions: CAPAN-1 xenograft; PEG-BCT-100 20 mg/kg IV twice a week; DFMO 2% w/v in drinking water. The format is in vivo, mouse. On the procedure: In one example embodiment, the CAPAN-1 tumour cells are maintained in vitro culture in EMEM medium supplemented with 10% heat inactivated fetal bovine serum at 37° C. in an atmosphere of 5% CO2 in air. The tumour cells are routinely sub-cultured twice weekly. The cells growing in an exponential growth phase are harvested and counted for tumour inoculation.
Each mouse is inoculated subcutaneously at the right flank region with CAPAN-1 tumour cells (5×10^6) in 0.1 ml of PBS (1:1 Matrigel) for tumour development. The treatments start when the mean tumour size reaches 119 mm^3. The date of tumour cell inoculation is denoted as day 0.
Four treatment groups of animals, with eight animals in each group, are tested. Control group (negative control) receives physiological saline, and the three treatment groups respectively receive 20 mg/kg of PEG-BCT-100 alone, 2% w/v DFMO in drinking water, and combination of 20 mg/kg of PEG-BCT-100 and 2% w/v DFMO. PEG-BCT-100 is administered intravenously, twice a week, until euthanization while DFMO is supplied in drinking water at 2% w/v.

The test system of data set [3] is H23 lung adenocarcinoma cell line. As to the kind of experiment: MTT assay, growth inhibition of H23 cell line. In kind it is cell-based. The note with it: 48 h and 72 h at 0.5 ng/μl and 10 ng/μl. The procedure: (§1) The inhibition ratio (IR) and the half maximal inhibitory concentration (IC50) values are determined by a MTT assay.
Data set [4] relates to H358 lung adenocarcinoma cell line. As to the kind of experiment: MTT assay, growth inhibition of H358 cell line. As to conditions: 48 h and 72 h at 10 ng/μl. The format is cell-based. On the procedure: as §1
Background: Formazan colour is commonly taken as a measure of viable cells.

Data set [5] has as its system HCC827 lung adenocarcinoma cell line. As to the kind of experiment: MTT assay, growth inhibition of HCC827 cell line. The note with it: 48 h and 72 h at 0.5 ng/μl and 10 ng/μl. The format is cell-based. On the procedure:
as §1

In data set [6] the test system is H1650 lung adenocarcinoma cell line. As to the kind of experiment: MTT assay, growth inhibition of H1650 cell line. In kind it is cell-based. As to conditions: 48 h and 72 h at 10 ng/μl. On the procedure: as §1
Data set [7] has as its system H1975 lung adenocarcinoma cell line. Nature of the data set: MTT assay, growth inhibition of H1975 cell line. The format is cell-based. The note with it: 48 h and 72 h at 0.5 ng/μl and 10 ng/μl. The procedure:
as §1

Data set [8] relates to HCC2935 lung adenocarcinoma cell line. As to the kind of experiment: MTT assay, growth inhibition of HCC2935 cell line. The format is cell-based. As to conditions: 72 h at 10 ng/μl only. On the procedure: as §1
The test system of data set [9] is HCC4006 lung adenocarcinoma cell line. Nature of the data set: MTT assay, growth inhibition of HCC4006 cell line. The note with it: 48 h and 72 h at 0.5 ng/μl and 10 ng/μl. In kind it is cell-based. The procedure:
as §1

Data set [10] deals with lung adenocarcinoma cell lines (H23, H358, HCC827, H1650, H1975, HCC2935, HCC4006, and A549). Nature of the data set: MTT assay on the panel of eight lung adenocarcinoma cell lines. The note with it: all tested cell lines; MTT assay after treatment for 72 h. The format is cell-based. The procedure:
as §1

Data set [11] has as its system lung adenocarcinoma cell lines (H358, H1650, H1975, and HCC4006). As to the kind of experiment: Intracellular arginine level by arginine ELISA kit. The format is cell-based. As to conditions: all examined cell lines; IC50 concentrations and 0.1 μg/μl. On the procedure: In one example embodiment, four lung adenocarcinoma cell lines (i.e. H358, H1650, H1975, and HCC4006), obtained from ATCC, are treated with PEG-BCT-100 at IC50 concentrations and 0.1 μg/μl. Internalization of PEG-BCT-100 by lung adenocarcinoma cells are assessed by immunocytochemistry using anti-PEG-antibodies. Detection is done using anti-rabbit Alexa 488 conjugated secondary antibody and visualization is performed using a fluorescent microscope. The PEG-BCT-100 treated lung adenocarcinoma cells are lysed in RIPA buffer for determination of arginine level by K7733 arginine ELISA kit from Immunodiagnostik.
On the technique in general: In an ELISA, binding on a coated surface is turned into a signal by an enzyme label.

In data set [12] the test system is HCC4006 lung adenocarcinoma xenografts. Nature of the data set: HCC4006 lung adenocarcinoma xenograft. In kind it is in vivo, BALB/c nude mice. The procedure: In one example embodiment, ten million lung adenocarcinoma cells from cell lines H1650, H1975, and HCC4006 are engrafted subcutaneously in BALB/cnude mice (4 weeks old with body weight of 10-14 g). Body weight, clinical signs and survival times are recorded.
Two groups of the mice, with eight mice in each group, are tested. Control group (negative control) receives physiological saline and treatment group receives 20 mg/kg of PEG-BCT-100. PEG-BCT-100 is administered via intraperitoneal (IP) injection, twice weekly, until euthanization.
In one example embodiment, ten million lung adenocarcinoma cells from cell lines H1650, H1975 and HCC4006 are engrafted subcutaneously in BALB/cnude mice (4 weeks old with body weight of 10-14 g). Body weight, clinical signs and survival times are recorded.
Four groups of the mice, with eight mice in each group, are tested. Control group (negative control) receives physiological saline, and the three treatment groups respectively receive 20 mg/kg of PEG-BCT-100 alone, 2% w/v DFMO in drinking water, and combination of 20 mg/kg of PEG-BCT-100 and 2% w/v DFMO. PEG-BCT-100 is administered intraperitoneally, twice a week, until euthanization while DFMO is supplied in drinking water at 2% w/v.

For the molecule `NCCC[C@](N)(C(=O)O)C(F)F` [DFMO, α-difluoromethylornithine, reference compound], the figures for the anti-tumour effect entry in data set [1] and in [2] were “do not produce a significant anti-tumour effect” and “no significant anti-tumour effect”, respectively.

B1: PEG-BCT-100: pegylated recombinant human arginase I (SEQ ID NO.1, or SEQ ID NO.3 with six histidines), about 6-12 PEG molecules per arginase (protein, UniProt P05089 1-322, looked up)
Arginase-1: MSAKSRTIGIIGAPFSKGQPRGGVEEGPTVLRKAGLLEKLKEQECDVKDYGDLPFADIPNDSPFQIVKNPRSVGKASEQLAGKVAEVKKNGRISLVLGGDHSLAIGSISGHARVHPDLGVIWVDAHTDINTPLTTTSGNLHGQPVSFLLKELKGKIPDVPGFSWVTPCISAKDIVYIGLRDVDPGEHYILKTLGIKYFSMTEVDRLGIGKVMEETLSYLLGRKKRPIHLSFDVDGLDPSFTPATGTPVVGGLTYREGLYITEEIYKTGLLSGLDIMEVNPSLGKTPEEVTRTVNTAVAITLACFGLAREGNHKPIDYLNPPK
modifications: PEG, about 6-12 per arginase; optional His6 tag
Turning to B1, the “growth inhibition effect (cell proliferation)” value in data set [3] is given as “inhibits H23 lung adenocarcinoma cell line proliferation more effectively than ADI”; in data set [4] it was “inhibits H358 lung adenocarcinoma cell line proliferation more effectively than ADI”; in [5] it was “inhibits HCC827 lung adenocarcinoma cell line proliferation more effectively than ADI”; in data set [6], “inhibits H1650 lung adenocarcinoma cell line proliferation more effectively than ADI”; in data set [7] it was “inhibits H1975 lung adenocarcinoma cell line proliferation”; in data set [9], “inhibits HCC4006 lung adenocarcinoma cell line proliferation more effectively than ADI”. The “growth inhibition effect (cell proliferation / toxicity)” value in data set [8] is “induces toxicity in HCC2935 lung adenocarcinoma cell line”. Also, the “cytotoxicity (cell viability)” value in data set [10] is listed as “induces cytotoxicity in all tested lung adenocarcinoma cell lines”. The “intracellular (cytosolic) arginine level” value in [11] is “depletes intracellular arginine significantly; also recorded: able to deplete cytosolic arginine level significantly”. Further, the tumour growth result in [12] (PEG-BCT-100 20 mg/kg IP twice weekly, DFMO 2% w/v in drinking water, 20 mg/kg) is listed as “suppresses tumor growth; also recorded: inhibits tumour growth”. Also, in data set [12] (PEG-BCT-100 20 mg/kg vs control arm), the “in vivo ASS1 expression (Western blot)” value is recorded as “remains unchanged”. Also, in data set [12] (PEG-BCT-100 20 mg/kg vs control arm, 20 mg/kg), the “in vivo ODC expression (Western blot)” value was “remains negative; also recorded: does not show upregulation of ODC”. In addition, the anti-tumour effect entry is listed as “do not produce a significant anti-tumour effect” in data set [1] and “no significant anti-tumour effect” in data set [2].
